From publication PMC11869757 (Drug Design, Development and Therapy, 2025)

Target: T1, CD122/IL-2Rβ with a His-tag (Sino Biological, 10696-H08B) (human, UniProt P14784)
T1 sequence: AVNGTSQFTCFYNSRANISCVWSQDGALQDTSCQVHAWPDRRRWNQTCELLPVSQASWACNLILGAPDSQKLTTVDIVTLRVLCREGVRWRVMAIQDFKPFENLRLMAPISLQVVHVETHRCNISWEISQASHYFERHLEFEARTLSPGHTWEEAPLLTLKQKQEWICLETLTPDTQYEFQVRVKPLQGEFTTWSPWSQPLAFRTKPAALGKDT
Assay: SPR

B1: SHR-1916, PEGylated interleukin-2 analogue (IL-2 N26Q/N29S/F42A/N71Q/L72G/C125A with a 20 kDa PEG at the N-terminus) (ligand)
chain: APTSSSTKKTQLQLEHLLLDLQMILQGISNYKNPKLTRMLTAKFYMPKKATELKHLQCLEEELKPLEEVLQGAQSKNFHLRPRDLISNINVIVLELKGSETTFMCEYADETATIVEFLNRWITFAQSIISTLT
modifications: 20 kDa PEG on the N-terminal amine group
  Kd: 1710 nM
